Test results as given in PMC12383261, “Mechanistic adaptation of the metazoan RabGEFs Mon1-Ccz1 and Fuzzy-Inturned” (Science Advances, 2025).

B1: Rab23^I33A/T35A (natural protein)
chain: MLEEDMEVAIKMVVVGNGAVGKSSMIQRYCKGAFAKDYKKTIGVDFLERQIQVNDEDVRLMLWDTAGQEEFDAITKAYYRGAQACVLVFSTTDRESFEAVSSWREKVVAEVGDIPTVLVQNKIDLLDDSCIKNEEAEALAKRLKLRFYRTSVKEDLNVNEVFKYLAEKYLQKLKQQIAEDPELTHSSSNKIGVFNTSGGSHSGQNSGTLNGGDVINLRPNKQRTKKNRNPFSSCSIP
B2: HsFuzzy (human Fuzzy) (natural protein)
chain: GEEGTGGTVHLLCLAASSGVPLFCRSSRGGAPARQQLPFSVIGSLNGVHMFGQNLEVQLSSARTENTTVVWKSFHDSITLIVLSSEVGISELRLERLLQMVFGAMVLLVGLEELTNIRNVERLKKDLRASYCLIDSFLGDSELIGDLTQCVDCVIPPEGSLLQEALSGFAEAAGTTFVSLVVSGRVVAATEGWWRLGTPEAVLLPWLVGSLPPQTARDYPVYLPHGSPTVPHRLLTLTLLPSLELCLLCGPSPPLSQLYPQLLERWWQPLLDPLRACLPLGPRALPSGFPLHTDILGLLLLHLELKRCLFTVEPLGDKEPSPEQRRRLLRNFYTLVTSTHFPPEPGPPEKTEDEVYQAQLPRACYLVLGTEEPGTGVRLVALQLGLRRLLLLLSPQSPTHGLRSLATHTLHALTPLL
notes: Fuzzy, human; also called His-SUMO-Fuzzy; source: Spodoptera frugiperda 21 cells (biGBac), coexpressed with Inturned and Rab23^N121I, purified (glutathione agarose, SEC)
B3: HsRab23^N121I (nucleotide-free mutant of human Rab23) (natural protein)
chain: LEEDMEVAIKMVVVGNGAVGKSSMIQRYCKGIFTKDYKKTIGVDFLERQIQVNDEDVRLMLWDTAGQEEFDAITKAYYRGAQACVLVFSTTDRESFEAVSSWREKVVAEVGDIPTVLVQIKIDLLDDSCIKNEEAEALAKRLKLRFYRTSVKEDLNVNEVFKYLAEKYLQKLKQQIAEDPELTHSSSNKIGVFNTSGGSHSGQNSGTLNGGDVINLRPNKQRTKKNRNPFSSCSIP
notes: Rab23, human; also called GST-Rab23^N121I; source: Spodoptera frugiperda 21 cells (biGBac), coexpressed with Fuzzy and Inturned, purified (glutathione agarose, SEC); not shown: GST, N-terminal, cleaved

Legend:
[1] = molecular target: T1, Fuzzy^LD1-Inturned^LD1 catalytic core complex (human)
T1 sequence (Q9BT04 whole entry, looked up): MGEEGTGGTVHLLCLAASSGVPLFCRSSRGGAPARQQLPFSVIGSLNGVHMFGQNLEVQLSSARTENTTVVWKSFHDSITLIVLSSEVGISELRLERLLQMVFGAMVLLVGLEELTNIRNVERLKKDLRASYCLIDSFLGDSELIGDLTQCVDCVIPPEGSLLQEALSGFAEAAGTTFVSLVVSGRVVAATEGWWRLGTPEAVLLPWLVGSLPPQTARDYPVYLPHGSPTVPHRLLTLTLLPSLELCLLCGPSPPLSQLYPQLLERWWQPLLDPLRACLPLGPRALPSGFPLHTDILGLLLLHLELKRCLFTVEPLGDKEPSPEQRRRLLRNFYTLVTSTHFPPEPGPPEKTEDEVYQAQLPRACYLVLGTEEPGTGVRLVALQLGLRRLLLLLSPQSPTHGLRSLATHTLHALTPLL
T1 sequence (Q9ULD6 whole entry, looked up): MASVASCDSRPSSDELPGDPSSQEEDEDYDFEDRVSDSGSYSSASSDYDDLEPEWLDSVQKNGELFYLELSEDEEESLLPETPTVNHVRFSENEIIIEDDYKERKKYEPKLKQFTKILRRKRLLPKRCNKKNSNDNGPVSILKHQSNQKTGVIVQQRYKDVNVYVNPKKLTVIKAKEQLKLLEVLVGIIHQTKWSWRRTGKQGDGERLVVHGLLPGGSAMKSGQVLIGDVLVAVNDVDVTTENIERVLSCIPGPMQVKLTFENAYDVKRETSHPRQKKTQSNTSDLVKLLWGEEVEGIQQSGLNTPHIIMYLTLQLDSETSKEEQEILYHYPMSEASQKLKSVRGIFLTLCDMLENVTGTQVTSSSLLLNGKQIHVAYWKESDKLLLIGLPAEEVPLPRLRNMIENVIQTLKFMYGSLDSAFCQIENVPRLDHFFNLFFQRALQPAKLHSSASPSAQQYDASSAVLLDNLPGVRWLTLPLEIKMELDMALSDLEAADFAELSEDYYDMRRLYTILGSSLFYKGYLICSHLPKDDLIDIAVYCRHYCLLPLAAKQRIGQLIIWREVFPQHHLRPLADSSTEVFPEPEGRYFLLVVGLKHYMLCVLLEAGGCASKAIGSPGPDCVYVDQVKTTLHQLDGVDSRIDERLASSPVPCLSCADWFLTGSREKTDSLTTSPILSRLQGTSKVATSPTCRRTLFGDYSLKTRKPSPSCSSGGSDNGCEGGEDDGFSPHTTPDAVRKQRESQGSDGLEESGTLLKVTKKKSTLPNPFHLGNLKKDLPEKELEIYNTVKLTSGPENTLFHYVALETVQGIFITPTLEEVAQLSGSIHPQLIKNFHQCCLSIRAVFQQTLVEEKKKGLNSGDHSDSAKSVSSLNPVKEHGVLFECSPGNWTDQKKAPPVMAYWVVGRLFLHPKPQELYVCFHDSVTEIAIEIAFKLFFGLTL

[2] = molecular target: T2, HsInturned (human Inturned) (human, UniProt Q9ULD6 1-942); experiment: cryo-EM structure; HsFuzzy, HsInturned and HsRab23^N121I coexpressed in insect cells, complex purified; ~0.7 mg/ml; 0.002% lauryl maltose neopentyl glycol on grid; dimeric and trimeric particles in one sample; 50 mM tris, 200 mM NaCl, 0.5 mM TCEP, 1 mM MgCl2 (pH 8); conditions: both partners purified
T2 construct: Inturned, human; the N-terminal PDZ domain is not visible in the map; also called FLAG-Inturned; source: Spodoptera frugiperda 21 cells (biGBac), coexpressed with Fuzzy and Rab23^N121I, purified (glutathione agarose, SEC)
T2 sequence: T1 sequence (Q9ULD6 whole entry, looked up)

[3] = molecular target: T3, HsFuzzy-Inturned complex (cryo-EM sample) (human, UniProt Q9BT04 2-418; Q9ULD6 1-942); experiment: as above; conditions: both partners purified
T3 construct: Fuzzy, human; as m5; Inturned, human; as m6; Heterodimer of m5 and m6; seen alone and with Rab23^N121I in the same cryo-EM sample; also called dimeric Fuzzy-Inturned complex; source: Spodoptera frugiperda 21 cells (biGBac), coexpressed, purified (glutathione agarose, SEC)
T3 sequence 1: B2 chain
T3 sequence 2: T1 sequence (Q9ULD6 whole entry, looked up)

HsFuzzy (human Fuzzy) = molecular target: B2; experiment: as above; conditions: both partners purified

Row | binding result [2] | binding result [3] | binding result (HsFuzzy (human Fuzzy)) | Binder | stimulation of nucleotide exchange (MANT-GDP release) of Rab23^I33A/T35A by Fuzzy^LD1-Inturned^LD1, against Rab23 WT [1] [fold]
1 | – | – | – | B1 | 5
2 | binds | – | – | B2 | –
3 | binds | binds | binds | B3 | –
